No end group written: not given here.
Molecular target: fibrils composed of synthetic human λ6 variable domain (rVλ6Wil) (human)
Test: co-sedimentation

% bound: 58%
Binder: GGGYSKAQKAQAKQAKQAQKAQKAQAKQAKQAQKAQKAQAKQAKQA (also: Tc-99m label coupled directly, site not characterised) [Tc-99m labeled GGGY-p5+14 peptide]

Source: paper PMC4874933
